Like-named read-outs stand apart in the source and are kept apart here.

Holding throughout (experiment): co-sedimentation
For assay [1], the target named is A14C/E45C disulfide-crosslinked CA tubes (HIV-1).
For assay [2] the target is unchanged. This is another data set of the same source.
The target of assay [3] is CA_(14C/45C/E213A) tubes (HIV-1).
The target of assay [4] is CA_(14C/45C/E71A) tubes (HIV-1).
For assay [5], the target named is CA_(14C/45C/E75A) tubes (HIV-1).

As for “MxB_(1–35)-MBPdi (from UniProt P20592 1-35)”, the percent binding in assay [1] is 20%; in assay [2] it was 80%. In assay [2], this substance yielded a percent bound greater than 90%. The percent co-pelleted in assay [2] is greater than 90%. In addition, the figures for the binding as percent of WT CA tubes in assay [3], in assay [4] and in assay [5] were 40 % of WT, 60 % of WT and 60 % of WT, respectively.

The record behind these values is article PMC7183857.
